Results from patent US20250296984A1, “THERAPEUTIC AND DIAGNOSTIC AGENTS AND USES THEREOF” (priority 2022, published 2025).

B1: 13-5G6-1D3: mouse monoclonal IgG1 kappa antibody against US28 ECD3; VH SEQ ID NO: 12, VL SEQ ID NO: 18 (antibody, V domains shown)
VH: EVKLVESGGGLVQPGGSLRLACATSGFTFTDYYMSWVRQPPGKALEWLGFIRSKANGYTTEYSASVKGRFTISRDNSQSILYLQMNTLRSEDSATYYCARDERRTAWLAYWGQGTLVTVSA
VL: DVLMTQTPLSLPVSLGDQASISCRSSQSIVHSNGNTYLDWYLQKPGQSPKLLIYKVSNRFSGVPDRFSGSGSGTDFTLKISRVEAEDLGVYYCFQGSHVPTWTFGGGTKLEIK
modifications: Mature form of VH sequence of 1D3, without the leader sequence; Mature form of VL sequence of 1D3, without the leader sequence
B2: 7B1F3: mouse IgG1 kappa antibody against US28 ECD1 Peptide-N; VH SEQ ID NO: 211, VL SEQ ID NO: 213 (antibody, V domains shown)
VH: EVQLQQSGAELAKPGASVKMSCKASGYTFTNYWMHWVKQRPGQGLEWIGYVNPRTGYTEYNQKFKDKATLTADKSSRTAYMQLSSLTSEDSAVYSCARILNGTGFAYWGQGTLVTVSA
VL: DIVLTQSPSSLTVSVGEKFTMSCKSSQSLLYSSNQKNYLAWYQQKPGQSPKLLIYWASTRESGVPDRFTGSGSGTDFTLAISSVKPEDLAIYYCQQYYSFPLTFGAGTKLEIK
modifications: Mature form of VH sequence of 7B1F3, without the leader sequence; Mature form of VL sequence of 7B1F3, without the leader sequence

What was measured:
[1] = system: pancreatic tissue; test: IHC on pancreatic tissues; design: species or system human
From the text: FIG. 20. Some pancreatic tissues were studied to exclude general off-target binding of the 28-13-5G6-1D3 to this tissue type. […] The HCMV ISH is negative indicating absence of viral HCMV DNA in the normal pancreatic tissue sample. […] Thus, the same sample is positive for both HCMV proteins US28 and IE and HCMV DNA but negative for the negative control IgG indicating specific antibody binding. The US28 protein staining is cytoplasmic as expected, the IE protein is mostly located in the cell nucleus as expected since it is a nuclear protein. […] A colour version of FIG. 20 is also provided.

[2] = system: human primary cells (adrenal cortical, kidney epithelial, cardiac microvascular endothelial, liver epithelial, vein smooth muscle); test: FACS off-target binding to human primary cells; settings: FIG. 19 A
Method: Primary cells from different tissue origin were cultured in T25 flasks coated with 3 mL Gelatin-Based Coating Solution (Cellbiologeics, 6950) and placed at 37° C. for 1h. Excess solution was aspirated before cell seeding. 15 mL centrifuge tube were prepared with 6 mL preheated complete medium. Primary cells stored in liquid nitrogen were quickly thawed in 37° C. water bath for <1 min, and transferred to the 15 mL centrifuge tube. Cells were centrifuged at 1000 rpm for 5 minutes, before aspirating the supernatant and resuspending the cell pellet in 6 mL complete medium. Resuspended cells were added into the pre-coated T25 flask, and incubated in a humidified incubator at 37° C. with 5% CO2. […]
Flowcytometry was used to analyze cell surface binding by the US28 antibodies. Upon cell harvest, adherent non-infected and US28 overexpressing or HCMV infected cells were washed three times with cell staining buffer (phosphate-buffered saline (PBS (Amresco, Cleveland, 44139, USA) added 0.5% BSA and 0.05% Sodium Azide (NaN3)). The cells were trypisinized and then resuspended in DMEM with 10% FBS to inhibit the action of trypsin. The cells were then pelleted at 400×g for 10 minutes and washed three times in cell staining buffer. Cell viability and cell concentration were measured by tryphan blue viability assay and a cell counter (Countess, Invitrogen, Carlsbad, CA 92008, USA). […]

[3] = biological target: BSA (Bos taurus, UniProt P02769); test: ELISA, BSA coating (control); format: binding; settings: ECD1 subclones
Method: Microtiter plate wells were coated with 100 μl of the solution containing: (i) Bio-Peptide-N; or (ii) Bio-Peptide-1 and Bio-Peptide-2; at a concentration of between 1-10 μg/ml in coating buffer, consisting of Na2CO3, 1.5 g and NaHCO3, 2.93 g in 1 L of distilled water in pH 9.6, and then incubated for 1-2 hours at room temperature. The plate was washed 3 times in wash buffer consisting of PBS containing 0.05% v/v Tween-20 and blotted with paper towels thereafter. 150 μl of blocking solution containing Phosphate buffered saline (PBS) containing 1% w/v BSA, was added to each well and the plate was incubated for 2 hours at 37° C. The wells were washed 4 times in wash buffer and blotted on paper towels after the last wash. 100 μl of antibody dilution was added to each well and the plate was incubated for 1 hour at 37° C. and thereafter washed 3 times in wash buffer. 100 μl enzyme-conjugated secondary antibody (appropriately diluted in wash buffer) was added to each well and the plate was incubated for 1 hour at 37° C. The wells were then again washed 3 times in wash buffer and blotted with paper towels after the last wash. […] The absorbance values were read immediately at the appropriate wavelength and the data analyzed by Cmax Plus, Molecular Devices, San Jose, CA 95134, USA,

Sequence of BSA (P02769 25-607): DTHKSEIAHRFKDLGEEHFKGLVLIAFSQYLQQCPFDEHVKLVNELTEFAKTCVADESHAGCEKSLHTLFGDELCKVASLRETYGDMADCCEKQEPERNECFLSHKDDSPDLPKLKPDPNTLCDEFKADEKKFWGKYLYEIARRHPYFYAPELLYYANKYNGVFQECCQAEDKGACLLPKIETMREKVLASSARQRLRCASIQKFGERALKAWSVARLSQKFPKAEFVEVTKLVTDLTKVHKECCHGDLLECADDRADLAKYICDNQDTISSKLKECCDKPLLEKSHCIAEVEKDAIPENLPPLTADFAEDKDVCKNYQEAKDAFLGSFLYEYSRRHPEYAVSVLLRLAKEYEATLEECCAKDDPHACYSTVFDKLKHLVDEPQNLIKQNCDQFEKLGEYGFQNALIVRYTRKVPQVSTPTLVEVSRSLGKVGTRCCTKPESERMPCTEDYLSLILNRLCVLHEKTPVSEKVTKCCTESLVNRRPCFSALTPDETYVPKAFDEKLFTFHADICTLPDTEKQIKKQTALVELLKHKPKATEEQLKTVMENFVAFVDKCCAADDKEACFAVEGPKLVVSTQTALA

Molecule | IHC staining of normal pancreatic tissue ([1]; HCMV ISH negative sample) | IHC staining of pancreatic tissue sample from another patient ([1]; HCMV ISH positive sample) | surface binding on human primary cells [2] | absorbance, Coating: BSA [3]
B1 | negative staining | positive | < 1% | 
B2 |  |  |  | 0.0474
